Experimental data: patent publication US20090149389A1 (PURDUE RESEARCH FOUNDATION, published 2009)

Key:
Assay in all cases: cell-based or functional assay
CDKI/cyclinB (h) [1] = target: T1, CDKI/cyclinB (h) (human (h), UniProt P06493 1-297)
MAPKAP-K3 (h) = MAPKAP-K3 (h) (human (h), UniProt Q16644 1-382, limits assumed)
PKCδ (h) = PKCδ (h) (human (h), UniProt Q05655 1-676)
ROCK-1 (h) [2] = target: T2, ROCK-1 (h) (human (h), UniProt Q13464 17-535, limits assumed)
CaMKI (h) = CaMKI (h) (human (h), UniProt Q14012 1-370, limits assumed)
CKIB (h) = CKIB (h) (human (h))
EphA2 (h) = target: T3, EphA2 (h) (human (h), UniProt P29317 591-976, limits assumed)
T3 sequence (looked up): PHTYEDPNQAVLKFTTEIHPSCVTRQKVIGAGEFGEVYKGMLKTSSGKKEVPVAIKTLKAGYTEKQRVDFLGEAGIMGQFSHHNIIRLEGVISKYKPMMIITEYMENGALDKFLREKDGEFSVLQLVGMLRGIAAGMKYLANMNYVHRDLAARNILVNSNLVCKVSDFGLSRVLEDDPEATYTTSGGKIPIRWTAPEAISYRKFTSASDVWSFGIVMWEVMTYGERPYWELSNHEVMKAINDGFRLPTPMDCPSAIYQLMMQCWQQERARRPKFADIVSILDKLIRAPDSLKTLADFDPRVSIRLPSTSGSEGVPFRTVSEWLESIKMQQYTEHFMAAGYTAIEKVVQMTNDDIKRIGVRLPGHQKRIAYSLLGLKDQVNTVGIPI

Flt3 (h) = target: T4, Flt3 (h) (human (h), UniProt P36888 564-993, limits assumed)
T4 sequence (looked up): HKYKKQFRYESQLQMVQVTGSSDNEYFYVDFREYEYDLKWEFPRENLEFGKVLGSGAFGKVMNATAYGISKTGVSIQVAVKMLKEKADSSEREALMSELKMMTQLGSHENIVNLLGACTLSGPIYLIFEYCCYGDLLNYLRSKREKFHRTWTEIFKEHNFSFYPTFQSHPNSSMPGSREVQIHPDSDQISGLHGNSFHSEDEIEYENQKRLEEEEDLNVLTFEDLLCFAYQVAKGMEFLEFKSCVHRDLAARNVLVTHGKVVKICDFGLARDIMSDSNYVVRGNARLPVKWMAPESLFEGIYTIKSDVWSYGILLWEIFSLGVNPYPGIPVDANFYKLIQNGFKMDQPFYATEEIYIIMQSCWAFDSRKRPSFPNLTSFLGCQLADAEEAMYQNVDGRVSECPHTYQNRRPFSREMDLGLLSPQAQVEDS

MAPKI (h) = MAPKI (h) (human (h), UniProt P28482 1-360, limits assumed)
CDKI/cyclinB (h) [3] = target: T1, CDKI/cyclinB (h); remark: listed apart in the source
Pim-1 (h) = Pim-1 (h) (human (h), UniProt P11309 1-313)
SAPK2 a (h) = SAPK2 a (h) (human (h), UniProt Q16539 1-360)
Syk (h) = Syk (h) (human (h), UniProt P43405 1-635)
EGFR (h) = EGFR (h) (human (h), UniProt P00533 696-1210, limits assumed)
PhKγ2 (h) = target: T5, PhKγ2 (h) (human (h), UniProt P15735 1-406)
T5 sequence (looked up): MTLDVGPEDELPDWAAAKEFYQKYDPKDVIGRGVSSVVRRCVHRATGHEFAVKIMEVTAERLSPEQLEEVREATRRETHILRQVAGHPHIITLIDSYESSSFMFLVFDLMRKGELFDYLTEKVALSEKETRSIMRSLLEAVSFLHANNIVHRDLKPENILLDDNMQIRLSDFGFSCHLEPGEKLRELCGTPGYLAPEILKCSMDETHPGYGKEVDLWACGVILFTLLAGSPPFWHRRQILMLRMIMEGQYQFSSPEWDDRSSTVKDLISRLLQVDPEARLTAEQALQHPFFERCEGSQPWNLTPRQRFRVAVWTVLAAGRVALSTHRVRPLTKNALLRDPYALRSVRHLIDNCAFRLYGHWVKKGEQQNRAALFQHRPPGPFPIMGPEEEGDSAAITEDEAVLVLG

Rsk2 (h) = Rsk2 (h) (human (h), UniProt P51812 1-740)
JAK3 (h) = JAK3 (h) (human (h), UniProt P52333 781-1124, limits assumed)
GSK3β (h) = GSK3β (h) (human (h), UniProt P49841 1-420)
PDGFRβ (h) = PDGFRβ (h) (human (h), UniProt P09619 558-1106, limits assumed)
IGF-IR (h) = IGF-IR (h) (human (h), UniProt P08069 959-1367, limits assumed)
PKA (h) = PKA (h) (human (h), UniProt P17612 1-351)
ROCK-1 (h) [4] = target: T2, ROCK-1 (h); remark: listed apart in the source

T2 sequence (Q13464 17-535 limits assumed): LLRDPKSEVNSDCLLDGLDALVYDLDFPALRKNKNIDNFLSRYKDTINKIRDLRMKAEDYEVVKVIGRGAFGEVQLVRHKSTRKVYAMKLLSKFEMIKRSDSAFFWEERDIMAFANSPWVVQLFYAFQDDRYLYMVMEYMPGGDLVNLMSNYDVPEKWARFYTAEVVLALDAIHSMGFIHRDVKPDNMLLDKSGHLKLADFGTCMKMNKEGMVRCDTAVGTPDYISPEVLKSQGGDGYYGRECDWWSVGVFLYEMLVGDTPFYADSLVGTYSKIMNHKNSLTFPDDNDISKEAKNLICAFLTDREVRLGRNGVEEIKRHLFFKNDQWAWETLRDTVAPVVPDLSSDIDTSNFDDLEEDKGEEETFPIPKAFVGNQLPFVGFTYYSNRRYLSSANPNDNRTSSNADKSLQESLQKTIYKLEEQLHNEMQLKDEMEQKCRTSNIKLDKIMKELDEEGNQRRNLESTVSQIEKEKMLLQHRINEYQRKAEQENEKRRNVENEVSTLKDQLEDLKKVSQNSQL
T1 sequence (P06493 whole entry): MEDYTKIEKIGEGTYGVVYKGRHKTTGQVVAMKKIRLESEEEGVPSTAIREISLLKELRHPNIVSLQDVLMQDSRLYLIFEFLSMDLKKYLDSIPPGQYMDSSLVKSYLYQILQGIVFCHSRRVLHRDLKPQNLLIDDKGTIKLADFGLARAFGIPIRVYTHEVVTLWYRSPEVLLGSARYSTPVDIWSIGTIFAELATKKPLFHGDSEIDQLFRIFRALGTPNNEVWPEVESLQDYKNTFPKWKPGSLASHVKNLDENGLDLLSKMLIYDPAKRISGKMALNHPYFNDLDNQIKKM
Chain of Rsk2 (h) (P51812 whole entry): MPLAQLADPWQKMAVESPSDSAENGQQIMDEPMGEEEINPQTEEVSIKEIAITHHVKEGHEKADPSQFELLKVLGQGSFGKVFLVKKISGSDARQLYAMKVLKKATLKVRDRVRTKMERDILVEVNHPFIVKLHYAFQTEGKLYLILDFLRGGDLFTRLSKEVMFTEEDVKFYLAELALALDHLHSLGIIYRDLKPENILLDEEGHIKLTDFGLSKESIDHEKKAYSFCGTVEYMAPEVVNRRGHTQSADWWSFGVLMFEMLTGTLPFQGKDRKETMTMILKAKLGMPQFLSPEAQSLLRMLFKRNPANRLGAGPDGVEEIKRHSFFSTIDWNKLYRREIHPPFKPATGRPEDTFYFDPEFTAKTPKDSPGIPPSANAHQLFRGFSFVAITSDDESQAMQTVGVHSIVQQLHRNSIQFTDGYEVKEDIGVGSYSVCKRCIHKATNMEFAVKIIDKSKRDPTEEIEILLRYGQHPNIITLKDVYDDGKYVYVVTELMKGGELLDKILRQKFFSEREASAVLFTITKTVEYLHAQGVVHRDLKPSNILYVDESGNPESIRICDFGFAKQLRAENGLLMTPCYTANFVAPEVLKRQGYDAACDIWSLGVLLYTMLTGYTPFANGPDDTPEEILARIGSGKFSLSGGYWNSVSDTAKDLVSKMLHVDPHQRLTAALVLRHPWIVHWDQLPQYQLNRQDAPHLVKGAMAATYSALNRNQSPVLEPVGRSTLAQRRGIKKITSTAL
Chain of CaMKI (h) (Q14012 whole entry): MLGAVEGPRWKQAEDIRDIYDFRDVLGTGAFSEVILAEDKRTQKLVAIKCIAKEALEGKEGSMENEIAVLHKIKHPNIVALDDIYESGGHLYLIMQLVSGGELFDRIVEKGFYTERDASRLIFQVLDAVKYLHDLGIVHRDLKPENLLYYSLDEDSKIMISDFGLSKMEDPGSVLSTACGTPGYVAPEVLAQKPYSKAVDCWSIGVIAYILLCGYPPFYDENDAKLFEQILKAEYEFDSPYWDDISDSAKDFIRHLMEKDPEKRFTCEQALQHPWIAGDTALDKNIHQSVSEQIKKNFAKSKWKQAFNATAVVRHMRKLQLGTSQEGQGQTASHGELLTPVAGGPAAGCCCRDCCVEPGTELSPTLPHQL
Chain of MAPKI (h) (P28482 whole entry): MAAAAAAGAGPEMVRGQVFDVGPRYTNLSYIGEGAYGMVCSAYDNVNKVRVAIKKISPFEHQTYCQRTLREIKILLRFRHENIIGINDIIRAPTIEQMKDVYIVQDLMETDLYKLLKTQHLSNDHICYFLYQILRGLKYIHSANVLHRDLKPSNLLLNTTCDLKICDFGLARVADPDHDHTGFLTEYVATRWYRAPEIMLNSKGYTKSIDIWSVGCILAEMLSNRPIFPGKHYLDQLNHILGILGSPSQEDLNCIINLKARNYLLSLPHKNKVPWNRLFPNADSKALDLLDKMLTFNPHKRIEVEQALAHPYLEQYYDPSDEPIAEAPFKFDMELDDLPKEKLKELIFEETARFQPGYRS
Chain of PDGFRβ (h) (P09619 558-1106 limits assumed): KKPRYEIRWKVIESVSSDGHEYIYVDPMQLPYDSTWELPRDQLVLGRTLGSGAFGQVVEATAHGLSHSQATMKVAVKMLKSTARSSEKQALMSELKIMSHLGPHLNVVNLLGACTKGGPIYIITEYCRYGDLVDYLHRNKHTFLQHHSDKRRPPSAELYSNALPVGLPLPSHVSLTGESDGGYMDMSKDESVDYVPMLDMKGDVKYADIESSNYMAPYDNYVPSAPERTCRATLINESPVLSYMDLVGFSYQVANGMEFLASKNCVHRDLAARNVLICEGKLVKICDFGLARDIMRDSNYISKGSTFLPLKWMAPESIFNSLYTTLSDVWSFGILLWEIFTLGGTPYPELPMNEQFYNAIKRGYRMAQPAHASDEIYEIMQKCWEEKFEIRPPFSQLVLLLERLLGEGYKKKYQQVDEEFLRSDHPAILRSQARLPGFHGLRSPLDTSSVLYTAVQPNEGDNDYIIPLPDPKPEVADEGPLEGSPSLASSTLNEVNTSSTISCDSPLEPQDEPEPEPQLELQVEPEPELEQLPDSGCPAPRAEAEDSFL
Chain of JAK3 (h) (P52333 781-1124 limits assumed): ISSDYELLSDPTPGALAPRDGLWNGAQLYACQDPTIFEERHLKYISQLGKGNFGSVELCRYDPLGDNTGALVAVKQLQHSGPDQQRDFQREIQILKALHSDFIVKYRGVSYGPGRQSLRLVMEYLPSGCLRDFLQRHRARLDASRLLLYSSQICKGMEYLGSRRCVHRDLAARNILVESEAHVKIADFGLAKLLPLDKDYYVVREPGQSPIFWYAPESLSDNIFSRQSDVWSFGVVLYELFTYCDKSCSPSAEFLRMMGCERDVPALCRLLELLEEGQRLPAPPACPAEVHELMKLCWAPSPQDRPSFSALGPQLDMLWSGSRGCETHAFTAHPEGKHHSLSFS
Chain of PKCδ (h) (Q05655 whole entry, stated change not applied): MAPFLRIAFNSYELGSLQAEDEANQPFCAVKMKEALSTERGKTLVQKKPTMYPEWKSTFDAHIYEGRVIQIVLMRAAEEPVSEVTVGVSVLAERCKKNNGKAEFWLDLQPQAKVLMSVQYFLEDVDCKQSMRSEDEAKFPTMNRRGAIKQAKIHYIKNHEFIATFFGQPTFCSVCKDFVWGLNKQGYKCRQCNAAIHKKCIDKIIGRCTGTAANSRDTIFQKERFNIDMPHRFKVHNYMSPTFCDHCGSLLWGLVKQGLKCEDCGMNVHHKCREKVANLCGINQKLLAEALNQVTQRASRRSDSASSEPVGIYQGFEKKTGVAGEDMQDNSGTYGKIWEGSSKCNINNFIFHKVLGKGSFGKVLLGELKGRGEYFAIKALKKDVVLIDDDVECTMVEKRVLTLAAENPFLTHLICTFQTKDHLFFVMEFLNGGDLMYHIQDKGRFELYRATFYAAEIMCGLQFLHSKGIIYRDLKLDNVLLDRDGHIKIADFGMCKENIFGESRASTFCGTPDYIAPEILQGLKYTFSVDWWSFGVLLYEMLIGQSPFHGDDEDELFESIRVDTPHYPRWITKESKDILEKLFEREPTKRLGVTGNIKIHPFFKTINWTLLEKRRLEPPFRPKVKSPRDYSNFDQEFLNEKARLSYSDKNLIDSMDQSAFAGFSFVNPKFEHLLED
Chain of IGF-IR (h) (P08069 959-1367 limits assumed): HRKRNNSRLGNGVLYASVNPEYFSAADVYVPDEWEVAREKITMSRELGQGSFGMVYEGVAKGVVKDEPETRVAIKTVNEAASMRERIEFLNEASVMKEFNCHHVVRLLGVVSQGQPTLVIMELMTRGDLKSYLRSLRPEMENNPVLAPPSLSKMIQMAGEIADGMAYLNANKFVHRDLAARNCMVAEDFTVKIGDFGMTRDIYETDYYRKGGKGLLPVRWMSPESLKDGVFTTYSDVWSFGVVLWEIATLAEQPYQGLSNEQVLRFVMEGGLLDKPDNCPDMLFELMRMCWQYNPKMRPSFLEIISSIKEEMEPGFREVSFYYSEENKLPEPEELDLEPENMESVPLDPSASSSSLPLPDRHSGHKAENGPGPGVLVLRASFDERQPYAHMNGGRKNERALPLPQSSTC
Chain of Pim-1 (h) (P11309 whole entry): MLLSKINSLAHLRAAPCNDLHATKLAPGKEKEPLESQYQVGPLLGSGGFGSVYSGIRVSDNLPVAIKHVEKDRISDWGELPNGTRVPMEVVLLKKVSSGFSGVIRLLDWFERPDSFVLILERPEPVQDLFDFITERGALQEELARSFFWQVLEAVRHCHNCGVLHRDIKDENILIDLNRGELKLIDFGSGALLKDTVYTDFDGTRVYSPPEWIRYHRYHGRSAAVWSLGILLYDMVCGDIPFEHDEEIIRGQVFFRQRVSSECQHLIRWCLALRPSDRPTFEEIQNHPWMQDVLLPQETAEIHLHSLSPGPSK
Chain of SAPK2 a (h) (Q16539 whole entry): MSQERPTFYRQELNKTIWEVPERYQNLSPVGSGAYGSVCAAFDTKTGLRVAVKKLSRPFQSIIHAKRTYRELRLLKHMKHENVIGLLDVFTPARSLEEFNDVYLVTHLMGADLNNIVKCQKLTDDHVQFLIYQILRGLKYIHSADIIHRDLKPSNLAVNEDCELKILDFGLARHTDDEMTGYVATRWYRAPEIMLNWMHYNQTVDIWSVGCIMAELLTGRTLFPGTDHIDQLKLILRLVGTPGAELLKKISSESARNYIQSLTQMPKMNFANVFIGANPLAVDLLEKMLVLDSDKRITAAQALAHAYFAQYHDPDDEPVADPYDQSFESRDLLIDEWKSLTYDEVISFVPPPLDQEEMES

**Q.** Which “Profile-1 @ = 100 µm (kinase profiler assay)” value (“Profile-1 @ = 100 µm” below) (CDKI/cyclinB (h) [1]) does the source give for FAKLAARLYRKALARQLGVAA here?
**A.** 36

**Q.** What about the “Profile-1 @ = 100 µm” value (MAPKAP-K3 (h)) of the same binder?
**A.** 10

**Q.** And the “Profile-1 @ = 100 µm” value (PKCδ (h))?
**A.** 40

**Q.** And the “Profile-1 @ = 100 µm” value (ROCK-1 (h) [2])?
**A.** 25

**Q.** With WLRRIKAWLRRIKALNRQLGVAA as the binder, how does the “Profile-1 @ = 30 µm (kinase profiler assay)” value (shortened to “Profile-1 @ = 30 µm”) (CaMKI (h)) read?
**A.** 9

**Q.** What about the “Profile-1 @ = 30 µm” value (CKIB (h)) of the same binder?
**A.** 52

**Q.** And the “Profile-1 @ = 30 µm” value (EphA2 (h))?
**A.** 38

**Q.** And the “Profile-1 @ = 30 µm” value (Flt3 (h))?
**A.** 38

**Q.** And the “Profile-1 @ = 30 µm” value (MAPKI (h))?
**A.** 121

**Q.** And the “Profile-1 @ = 30 µm” value (CDKI/cyclinB (h) [3])?
**A.** 17

**Q.** What about the “Profile-1 @ = 30 µm” value (Pim-1 (h)) of the same binder?
**A.** 5

**Q.** And the “Profile-1 @ = 30 µm” value (SAPK2 a (h))?
**A.** 61

**Q.** What about the “Profile-1 @ = 30 µm” value (Syk (h)) of the same binder?
**A.** 19

**Q.** What about the “Profile-1 @ = 30 µm” value (EGFR (h)) of the same binder?
**A.** 10

**Q.** What about the “Profile-1 @ = 30 µm” value (PhKγ2 (h)) of the same binder?
**A.** 15

**Q.** And the “Profile-1 @ = 30 µm” value (Rsk2 (h))?
**A.** 14

**Q.** And the “Profile-1 @ = 30 µm” value (JAK3 (h))?
**A.** 85

**Q.** What about the “Profile-1 @ = 30 µm” value (GSK3β (h)) of the same binder?
**A.** 129

**Q.** What about the “Profile-1 @ = 30 µm” value (PDGFRβ (h)) of the same binder?
**A.** 42

**Q.** And the “Profile-1 @ = 30 µm” value (IGF-IR (h))?
**A.** 227

**Q.** What about the “Profile-1 @ = 30 µm” value (PKA (h)) of the same binder?
**A.** 80

**Q.** And the “Profile-1 @ = 30 µm” value (ROCK-1 (h) [4])?
**A.** 0
